Reference: paper PMC4331662

Target: D. melanogaster cellular repressor of E1A-stimulated genes (dCREG), residues 24-212, produced in E. coli from pFO4/dCREG (D. melanogaster)
Experiment: SEC; Superdex 75 HR 10/30, 50 mM sodium phosphate buffer pH 7.0, 150 mM NaCl, flow 0.5 ml/min, absorbance at 280 nm

In the case of “D. melanogaster cellular repressor of E1A-stimulated genes (dCREG), residues 24-212, produced in E. coli from pFO4/dCREG (natural protein)”, the stoichiometry N is reported as 2.
